Measurements from paper PMC10278182, “Evaluation of Nanopore Sensor Design Using Electrical and Optical Analyses” (ACS Nano, 2023).

Experiments:
Assay in all cases: BLI; ND-BLI: biotinylated nanodiscs (15 nM) with reconstituted nanopores loaded on streptavidin (SAX) sensors; WDR5 in solution, 1 to 18 μM; 300 mM KCl, 20 mM Tris-HCl, 1 mg/mL BSA, 1 mM TCEP, pH 7.5; 24 °C; empty nanodiscs as reference
Conditions in all cases: both partners purified
[1] = target: T1, WD40 repeat protein 5 truncation mutant lacking residues 1-22 (WDR5ΔN) (UniProt P61964 23-334)
[2] = target: T1, WD40 repeat protein 5 truncation mutant …; remark: listed apart in the source
[3] = target: T1, WD40 repeat protein 5 truncation mutant …; remark: listed apart in the source

Kd [1] [nM]	koff [2] [s⁻¹]	kon [2] [M⁻¹ s⁻¹]	koff [3] [s⁻¹]	kon [3] [M⁻¹ s⁻¹]	Binder
260 ± 30	0.0049	19000	–	–	MLNPHGAARAEVYLRGGSGGS (other) [(GGS)2 nanopore sensor without the peptide adaptor (MLL4Win - (GGS)2 tether - tFhuA)]
250 ± 50	0.0046	19000	–	–	MGDRGPEFELGTMLNPHGAARAEVYLRGGSGGS (other) [O(GGS)2 nanopore sensor (adaptor O - MLL4Win - (GGS)2 tether - tFhuA)]
3010 ± 940	–	–	0.018	6000	MGDRGPEFELGTMLNPHGAARAEVYLRPAPAPA (other) [O(PA)3 nanopore sensor (adaptor O - MLL4Win - (PA)3 tether - tFhuA)]
